Test [1] concerns the target MBP-RAMP1.24-111-(GS)5-CLR.29-144-H6 (human) (UniProt O60894). The experiment in a line: fluorescence polarisation. For orientation: Polarisation of emitted light reports the rotation of a fluorescent probe.
The target in test [2] is MBP-RAMP2.55-140[L106R]-(GS)5-CLR.29-144-H6 (human) (UniProt O60895). Kind of test: fluorescence polarisation.
Test [3] deals with RAMP2:CLR full-length receptor complex (AM1 receptor) (human) (UniProt O60895).
Test [4] concerns the target MBP-RAMP3.25-111-(GS)5-CLR.29-144-H6 (human) (UniProt O60896). The experiment in a line: fluorescence polarisation.
The target in test [5] is RAMP3:CLR full-length receptor complex (AM2 receptor) (human) (UniProt O60896).
Test [6] deals with RAMP1:CLR full-length receptor complex (CGRP receptor) (human) (UniProt O60894).
Test [7] deals with T1, MBP-RAMP1.24-111-(GS)5-CLR.29-144-H6 (human), O60894.
T1 chain: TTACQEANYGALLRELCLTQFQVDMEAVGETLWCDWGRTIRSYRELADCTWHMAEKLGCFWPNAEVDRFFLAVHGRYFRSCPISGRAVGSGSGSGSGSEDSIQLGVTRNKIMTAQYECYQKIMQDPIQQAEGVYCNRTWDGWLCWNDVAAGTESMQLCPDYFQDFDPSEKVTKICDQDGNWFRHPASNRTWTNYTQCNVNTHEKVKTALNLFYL
The experiment in a line: fluorescence polarisation.

RAMP2:CLR full-length receptor complex (AM1 receptor) (human), sequence (O60895 43-175, chain 1 of 2): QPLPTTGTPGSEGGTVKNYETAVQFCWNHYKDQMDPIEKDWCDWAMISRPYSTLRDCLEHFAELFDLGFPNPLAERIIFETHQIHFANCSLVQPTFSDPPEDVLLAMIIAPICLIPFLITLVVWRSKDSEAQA
RAMP2:CLR full-length receptor complex (AM1 receptor) (human), sequence (Q16602 23-461, chain 2 of 2, further chain): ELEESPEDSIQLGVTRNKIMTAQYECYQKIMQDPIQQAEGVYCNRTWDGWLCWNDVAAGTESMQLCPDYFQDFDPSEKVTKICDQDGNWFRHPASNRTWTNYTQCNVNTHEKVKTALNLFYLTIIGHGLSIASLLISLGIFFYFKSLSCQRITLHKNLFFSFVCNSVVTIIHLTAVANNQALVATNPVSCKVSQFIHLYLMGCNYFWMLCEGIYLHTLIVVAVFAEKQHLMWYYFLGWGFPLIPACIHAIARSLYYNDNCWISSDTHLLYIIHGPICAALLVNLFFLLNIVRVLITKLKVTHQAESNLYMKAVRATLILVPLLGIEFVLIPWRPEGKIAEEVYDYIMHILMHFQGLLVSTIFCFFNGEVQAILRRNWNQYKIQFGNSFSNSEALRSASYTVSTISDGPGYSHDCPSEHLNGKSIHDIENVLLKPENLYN
RAMP3:CLR full-length receptor complex (AM2 receptor) (human), sequence (O60896 24-148, chain 1 of 2): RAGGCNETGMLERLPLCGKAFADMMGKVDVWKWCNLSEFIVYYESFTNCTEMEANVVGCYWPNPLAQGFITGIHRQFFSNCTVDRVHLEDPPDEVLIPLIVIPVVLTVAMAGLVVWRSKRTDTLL
RAMP3:CLR full-length receptor complex (AM2 receptor) (human), sequence (Q16602 23-461, chain 2 of 2, further chain): as the sequence (Q16602 23-461, chain 2 of 2, further chain) above
RAMP1:CLR full-length receptor complex (CGRP receptor) (human), sequence (O60894 27-148, chain 1 of 2): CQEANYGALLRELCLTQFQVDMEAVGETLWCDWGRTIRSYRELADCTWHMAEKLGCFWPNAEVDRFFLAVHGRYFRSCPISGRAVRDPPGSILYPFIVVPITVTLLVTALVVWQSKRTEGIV
RAMP1:CLR full-length receptor complex (CGRP receptor) (human), sequence (Q16602 23-461, chain 2 of 2, further chain): as the sequence (Q16602 23-461, chain 2 of 2, further chain) above

On to AM2/IMD S43G/H45W (peptide), for which the pKI in test [1] was 4.75.

In test [2], AM S48G (peptide) gave a fold increase in affinity against wild-type AM of 5 fold.

Take AM(22-52) S48G/Q50W (peptide): in test [3], the antagonism of cAMP signalling in COS-7 cells, apparent KB (Gaddum/Schild) was 80 pM.

Take AM(37-52) S45R/K46A/S48G/Q50W (peptide): the fold decrease in affinity against S45R/K46L/S48G/Q50W in test [4], in test [2] and in test [1] was 10 fold in each case.

As for AM(37-52) S45R/K46L/Q50W (peptide), the figures for the fold increase in affinity against K46L/Q50W in test [4], in test [2] and in test [1] were 5 fold, 17 fold and 5 fold, respectively.

Turning to AM(37-52) S48G/Q50W (peptide), the fold increase in affinity against Q50W was 6 fold in test [4], 13 fold in test [2] and 6 fold in test [1].

In the case of “CGRP(8-37) N31D/S34P/K35W/A36S (peptide)”, the results for the cAMP antagonism in COS-7 cells; estimated receptor residence time in test [5], in test [6] and in test [3] were 11 h, 12.5 h and 5.2 h, respectively.

Molecule GPAGRQDSAPVDPSSPWSY (modifications not checked) [AM2/IMD H45W] showed a pKI in test [7] of 6.08.

The record behind these values is article doi:10.1101/2020.02.28.970301.
